1 molecule from PMC8837534, “CD147 supports paclitaxel resistance via interacting with RanBP1” (Oncogene, 2022) can be followed below.

This experiment has as its target T1, RanBP1 protein (full-length, recombinant) (UniProt P43487 1-201).
T1 construct: pMAL-c5x vector; that this removed MBP is inferred; source: E. coli BL21 (DE3), purified (MBPTrap HP, thrombin digestion, Superdex 75); not shown: MBP, N-terminal, cleaved
Kind of experiment: SPR; ProteOn XPR36, One-shot Kinetics; concentration series of CD147^ICD injected over the immobilized ligand in TBS-T, 50 μL/min for 3 min, dissociation 12 min; constants by ProteOn Manager Software. To be noted: both partners purified. On the technique in general: In SPR one partner is held on a chip, and binding of the other changes the refractive index at the surface.

T1 sequence (P43487 whole entry): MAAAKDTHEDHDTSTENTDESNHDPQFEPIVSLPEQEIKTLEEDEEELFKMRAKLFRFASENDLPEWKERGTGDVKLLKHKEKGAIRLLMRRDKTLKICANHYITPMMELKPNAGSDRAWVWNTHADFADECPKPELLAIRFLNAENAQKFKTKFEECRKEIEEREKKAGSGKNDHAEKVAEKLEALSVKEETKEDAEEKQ

B1: His6-tagged CD147^ICD (intracellular domain of CD147, residues 231-269) (domain or fragment, UniProt P35613-2 231-269, looked up)
chain: KRRKPEDVLDDDDAGSAPLKSSGQHQNDKGKNVRQRNSS
notes: CD147 (basigin), intracellular domain, residues 231-269; One preparation is described (pET21a, 'SUMO-His tag at the C-terminus', SUMO removed by Ulp1); The pull-down names the bait as His6-tagged; source: E. coli BL21 (DE3), purified (HisTrap HP, Ulp1 digestion, Superdex 75); not shown: SUMO, C-terminal, cleaved; His6, C-terminal, kept
Turning to B1, the Kd came out at 2250 nM.

As a reminder, the Kd is the free concentration of one partner at which half of the binding sites on the other are occupied at equilibrium, for simple one-to-one binding.
